# Measurements from publication PMC7347289.
# Target: Sambucus nigra agglutinin (Sambucus nigra)
# Assay: localized surface plasmon resonance
# Chain of Sambucus nigra agglutinin (Sambucus nigra) (Q41358 29-289 limits assumed, chain 1 of 2): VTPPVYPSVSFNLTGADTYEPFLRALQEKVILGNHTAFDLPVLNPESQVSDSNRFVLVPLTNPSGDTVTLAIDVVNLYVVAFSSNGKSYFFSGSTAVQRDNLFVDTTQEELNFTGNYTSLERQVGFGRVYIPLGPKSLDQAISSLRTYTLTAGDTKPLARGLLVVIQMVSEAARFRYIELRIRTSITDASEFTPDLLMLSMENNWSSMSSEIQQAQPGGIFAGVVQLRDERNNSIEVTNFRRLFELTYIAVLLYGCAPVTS
# Chain of Sambucus nigra agglutinin (Sambucus nigra) (Q41358 309-570 limits assumed, chain 2 of 2): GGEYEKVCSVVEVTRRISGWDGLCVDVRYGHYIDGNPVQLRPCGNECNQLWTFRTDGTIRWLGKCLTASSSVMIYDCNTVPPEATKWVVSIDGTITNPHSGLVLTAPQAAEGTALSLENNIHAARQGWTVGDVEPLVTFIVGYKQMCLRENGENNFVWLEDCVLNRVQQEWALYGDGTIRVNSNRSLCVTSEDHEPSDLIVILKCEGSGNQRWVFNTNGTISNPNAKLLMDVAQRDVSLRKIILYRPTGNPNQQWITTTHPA
substance,measurement,value
α-1 acid glycoprotein (from UniProt P02763 19-201) (natural protein),Kd,31 µM
